Source: paper PMC10624894 (Nature Communications, 2023)

B1: Nb^633 (VHH)
VHH: QVQLVESGGGLVQAGASLRLSCAASGRTFSSYAMGWFRQAPGKEREFVAAISPLGQTTYYTDSVKGRFTISRDNAKNTLYLQMNSLKPEDTAVYYCAQGSLSEVRLGKSTYWGQGTQVTVSS
notes: also called nanobody 633; source: E. coli WK6, periplasmic expression, purified (SEC as the final step)
B2: Nb^632 (VHH)
VHH: QVQLVESGGGLVQAGGSLRLSCVASGGTFSNYGMGWFRQAPGKEREFVAAVRWSGDSTYYSDSVKGRFTISRDNAKNTVYLQMNGLKPEDTAVYYCARRLNWRFISNWDKESEYAYWGQGTQVTVSS
notes: also called nanobody 632; source: E. coli WK6, periplasmic expression, purified (SEC as the final step)
B3: Nb^643 (VHH)
VHH: QVQLVESGGGLVQPGGSLRLSCAASGIAFSRNAVGWYRQAPGKQRELVARSNTVGATNYADSVKGRFTISRDNDKSTVYLQMNSLKPEDTAVYYCNIYLYGDRTGSTLNSWGQGTQVTVSS
notes: also called nanobody 643; source: E. coli WK6, periplasmic expression, purified (SEC as the final step)

Target: EA1ΔD6 (Bacillus anthracis (strain 7702), UniProt P94217, biotin (EZ-Link NHS-PEG4-Biotin) in the BLI experiment only)
Assay: BLI; […] (3 µg/ml) […]; room temperature; […]
Conditions: both partners purified

Q: B1 was tested. Which Kd did it give?
A: 13 nM

Q: With B2 as the binder, how does the Kd read?
A: 2.2 nM

Q: For B3, which Kd is on record?
A: 1.9 nM
